According to PMC11633101 (2024):

Target: BVDV E2 protein with 6×his tag, purified from 293F cells (bovine viral diarrhea virus (BVDV), UniProt P19711 693-1066)
Test: SPR

B1: bovine CD46 protein (MedChemExpress) (receptor)
chain: CDDPPRFVSMKPQGTLKPSYSPGEQIVYECHLGFQPVTPGQVLALVCQDNNTWSSLQEGCKKRRCPTLADPTNGQVILVNGSTEFGSEVHYVCNNGYYLLGTNISYCEVSSGTGVNWSDNPPTCEKILCQPPPEIQNGKYTNSHKDVFEYNEVVTYSCDPSNGPDEYSLVGESKLTCIGNGEWSSQPPQCKVVKCVYPAIEHGTIVSGFGPKYYYKATVVLKCNEGFNLYGNSVVVCGENSTWEPELPKCIKGHPPRPTDASPPNGAEG
Binder B1 has a Kd of 75.1 nM.
